Assay [1] is classed as in vivo. Particulars: subject 03; 1.5 g/m2 on day 17 after high-dose steroids without improvement.
Source text: This clinical trial was a phase 1 open-label study where the primary objective was safety.
The primary objective was to evaluate the safety of CART-BCMA in patients with relapsed/refractory myeloma. The primary endpoint was incidence of study-related grade 3 or higher AEs, including dose-limiting toxicities (DLTs). A DLT was defined as a serious AND unexpected AE whose relationship to study therapy could not be ruled out, occurring within 4 weeks of receiving protocol therapy.
Assay [2] deals with BCMA (B-cell maturation antigen) on the surface of cell lines (UniProt Q02223). In words: flow cytometry on HBL-1 cells; Quantum Simply Cellular quantification kit.
Assay [3] has the same target. The experiment in a line: flow cytometry on SuDHL-6 cells; Quantum Simply Cellular quantification kit. Background: A flow cytometer gives signals particle by particle.

Bounds are passed on as bounds.

BCMA (B-cell maturation antigen) on the surface of cell lines, sequence (Q02223 whole entry): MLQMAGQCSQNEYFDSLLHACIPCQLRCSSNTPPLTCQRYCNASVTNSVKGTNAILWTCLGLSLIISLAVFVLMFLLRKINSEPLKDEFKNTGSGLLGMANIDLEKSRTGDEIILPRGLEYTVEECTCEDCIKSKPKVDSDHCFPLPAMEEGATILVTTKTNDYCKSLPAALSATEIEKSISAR

As to `O=P1(N(CCCl)CCCl)NCCCO1` (stereo not drawn) [cyclophosphamide], the “time to rapid neurologic improvement of PRES-like grade 4 neurotoxicity” value in assay [1] was no more than 48 hours.

For “PE-labeled anti-BCMA antibody (Biolegend, cat #357504)”, the antibody binding capacity (ABC) in assay [2] and in assay [3] was greater than 5000 in each case.

The record behind these values is patent US20200371091A1, “BCMA-TARGETING CHIMERIC ANTIGEN RECEPTOR, AND USES THEREOF” (Novartis AG, priority 2017, published 2020).
